We go through 64 sequences from the supplement of paper PMC7877785.

The data set in a line: self-splicing fitness, log relative to wild type (ln ratio); higher = more splicing; Tetrahymena group I intron in knt gene, E. coli kanamycin selection, DiMSum; sequences stand for … in CUCUCU…GGAGGGAAAAGUUAUCAGGCAUGCACCUGGUAGCUAGUCUUUAAACCAAUAGAUUGCAUCGGUUUAAAAGGCAAGACCGUCAAAUUGCGGGAAAGGGGUCAACAGCCGUUCAGUACCAAGUCUCAGGGGAAACUUUGAGAUGGCCUUGCAAAGGGUAUGGUAAUAAGCUGACGGACAUGGUCCUAACCACGCAGCCAAGUCCUAAGUCAACAGAUCUUCUGUUGAUAUGGAUGCAGUUCACAGACUAAAUGUCGGUCGGGGAAGAUGUAUUCUUCUCAUAAGAUAUAGUCGGACCUCUCCUUAAUGGGAGCUAGCGGAUGAAGUGAUGCAACACUGGAGCCGCUGGGAACUAAUUUGUAUGCGAAAGUAUAUUGAUUAGUUUUGGAGUACUCGUGGUCG
The method in brief:
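Library with all eight P1ex-region intron nucleotides randomised, intron inside the knt kanamycin-resistance gene on pET-22b(+), in E. coli BL21(DE3). Cells grew overnight at 37°C or 30°C on LB agar with or without 25 μg/mL kanamycin (plus 100 μg/mL carbenicillin, 50 μM IPTG, 0.2% rhamnose), in six replicate transformations. Pooled colonies were amplicon-sequenced on Illumina HiSeq 2500. DiMSum fitness is the error-weighted combination of wild-type-normalised replicate fold changes, kanamycin versus none.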

± gives the uncertainty stated by the source.

Regarding AGGAAGCAAUAUUACGAGCA, the “self-splicing fitness (ln)” value was -1.91 ± 0.17 (30 °C) and -1.7 ± 0.17 (37 °C).

Take CGCUAGCAAUAUUACGCAGA: the “self-splicing fitness (ln)” value runs as follows: (30 °C) -3.28 ± 0.45; (37 °C) -2.38 ± 0.36.

For GGAUAGCAAUAUUACGGGUC, the “self-splicing fitness (ln)” value reads like this: (30 °C) -4.23 ± 0.46; (37 °C) -2.64 ± 0.29.

As to CGCCAGCAAUAUUACGCCAC, the “self-splicing fitness (ln)” value (37 °C) was -1.48 ± 0.2.

As for CCGCAGCAAUAUUACGAAAU, the “self-splicing fitness (ln)” value was -3.66 ± 0.32 (30 °C) and -3.38 ± 0.33 (37 °C).

In the case of UGCCAGCAAUAUUACGGAUA, the “self-splicing fitness (ln)” value is -1.27 ± 0.091 (30 °C) and -0.573 ± 0.1 (37 °C).

Turning to UACAAGCAAUAUUACGGGAU, the “self-splicing fitness (ln)” value by setting is: (30 °C) -3.65 ± 0.17; (37 °C) -1.39 ± 0.11.

In the case of ACCCAGCAAUAUUACGGCUU, the “self-splicing fitness (ln)” value was -0.338 ± 0.071 (30 °C) and 0.053 ± 0.089 (37 °C).

Turning to CGAUAGCAAUAUUACGUCUC, the “self-splicing fitness (ln)” value was -2.61 ± 0.19 (30 °C) and -2.55 ± 0.32 (37 °C).

For GACAAGCAAUAUUACGACUG, the “self-splicing fitness (ln)” value by setting is: (30 °C) -0.381 ± 0.056; (37 °C) -0.0494 ± 0.092.

UGACAGCAAUAUUACGGCCG: the “self-splicing fitness (ln)” value (30 °C) was -0.739 ± 0.14 and the “self-splicing fitness (ln)” value (37 °C) was determined as 0.186 ± 0.19.

AACCAGCAAUAUUACGCUGC: the “self-splicing fitness (ln)” value runs as follows: (30 °C) -2.31 ± 0.18; (37 °C) -3.1 ± 0.24.

For CAGUAGCAAUAUUACGUUCG, the “self-splicing fitness (ln)” value (30 °C) turned out to be 0.207 ± 0.07 and the “self-splicing fitness (ln)” value (37 °C) came out at 0.209 ± 0.1.

As for GGGGAGCAAUAUUACGUUCA, the “self-splicing fitness (ln)” value is, setting by setting: (30 °C) -1.86 ± 0.25; (37 °C) -1.35 ± 0.19.

Consider ACUUAGCAAUAUUACGUCGU, for which the “self-splicing fitness (ln)” value runs as follows: (30 °C) -1.99 ± 0.079; (37 °C) -1.28 ± 0.088.

As to CAAAAGCAAUAUUACGCUAA, the “self-splicing fitness (ln)” value is, setting by setting: (30 °C) -3.66 ± 0.25; (37 °C) -2.1 ± 0.21.

Take GGUAAGCAAUAUUACGUUGC: the “self-splicing fitness (ln)” value reads like this: (30 °C) -3.3 ± 0.32; (37 °C) -2.95 ± 0.4.

For the sequence CCGAAGCAAUAUUACGAUUU, the “self-splicing fitness (ln)” value was -1.44 ± 0.16 (30 °C) and -2.58 ± 0.24 (37 °C).

Regarding AAACAGCAAUAUUACGUGGC, the “self-splicing fitness (ln)” value was -3.05 ± 0.2 (30 °C) and -2.35 ± 0.14 (37 °C).

As for UACCAGCAAUAUUACGCUGG, the “self-splicing fitness (ln)” value runs as follows: (30 °C) -3.35 ± 0.18; (37 °C) -2.77 ± 0.22.

With UACUAGCAAUAUUACGUAUU, the “self-splicing fitness (ln)” value (30 °C) was -4.56 ± 0.29 and the “self-splicing fitness (ln)” value (37 °C) is -2.24 ± 0.15.

Take CCCUAGCAAUAUUACGAGAU: the “self-splicing fitness (ln)” value is -3.88 ± 0.22 (30 °C) and -2.91 ± 0.24 (37 °C).

Regarding ACUCAGCAAUAUUACGAAGC, the “self-splicing fitness (ln)” value runs as follows: (30 °C) -1.99 ± 0.19; (37 °C) -1.46 ± 0.16.

Regarding GGGUAGCAAUAUUACGGUUA, the “self-splicing fitness (ln)” value by setting is: (30 °C) -1.43 ± 0.14; (37 °C) -0.344 ± 0.12.

With AAAGAGCAAUAUUACGAUAC, the “self-splicing fitness (ln)” value (37 °C) was -2.18 ± 0.41.

As to GUACAGCAAUAUUACGCUAC, where the note is “37 °C”, the “self-splicing fitness (ln)” value was -2.64 ± 0.48.

For UCUGAGCAAUAUUACGCGCU, the “self-splicing fitness (ln)” value was -2.53 ± 0.28 (30 °C) and -1.59 ± 0.3 (37 °C).

Regarding GCCUAGCAAUAUUACGAGAG, the “self-splicing fitness (ln)” value reads like this: (30 °C) -3.76 ± 0.32; (37 °C) -1.44 ± 0.12.

As to CUGGAGCAAUAUUACGGGUU, the “self-splicing fitness (ln)” value was -2.29 ± 0.18 (30 °C) and -2.91 ± 0.28 (37 °C).

On to CGUAAGCAAUAUUACGUUUC, for which the “self-splicing fitness (ln)” value is -3.97 ± 0.24 (30 °C) and -1.92 ± 0.2 (37 °C).

Turning to UGACAGCAAUAUUACGGUGC, under “30 °C”, the “self-splicing fitness (ln)” value is -2.01 ± 0.49.

On to UAAGAGCAAUAUUACGCAGG, for which the “self-splicing fitness (ln)” value is, setting by setting: (30 °C) -4.39 ± 0.36; (37 °C) -2.2 ± 0.2.

As for UGCUAGCAAUAUUACGCGCG, the “self-splicing fitness (ln)” value was -0.603 ± 0.092 (30 °C) and -1.08 ± 0.12 (37 °C).

Regarding CUAUAGCAAUAUUACGGCGU, the “self-splicing fitness (ln)” value runs as follows: (30 °C) -4.65 ± 0.46; (37 °C) -2.24 ± 0.43.

For AUCGAGCAAUAUUACGCAUA, the “self-splicing fitness (ln)” value (37 °C) was -1.54 ± 0.36.

As for CGACAGCAAUAUUACGAAGG, the “self-splicing fitness (ln)” value (30 °C) was -1.94 ± 0.092 and the “self-splicing fitness (ln)” value (37 °C) is -0.848 ± 0.13.

In the case of CUUGAGCAAUAUUACGCACU, the “self-splicing fitness (ln)” value runs as follows: (30 °C) -3.64 ± 0.39; (37 °C) -1.9 ± 0.44.

For CAGAAGCAAUAUUACGGCCC, the “self-splicing fitness (ln)” value (30 °C) is -2.98 ± 0.44.

On to GUUUAGCAAUAUUACGUUGU, for which the “self-splicing fitness (ln)” value was -4.02 ± 0.21 (30 °C) and -2.17 ± 0.16 (37 °C).

Consider AUGCAGCAAUAUUACGUCCC, for which the “self-splicing fitness (ln)” value (30 °C) was -1.53 ± 0.42.

With CAGCAGCAAUAUUACGCUAU, the “self-splicing fitness (ln)” value (30 °C) was -2.47 ± 0.27 and the “self-splicing fitness (ln)” value (37 °C) was -2 ± 0.18.

For the sequence UGUAAGCAAUAUUACGCAAG, the “self-splicing fitness (ln)” value (30 °C) was -2.85 ± 0.39 and the “self-splicing fitness (ln)” value (37 °C) was -2.66 ± 0.44.

Take ACGGAGCAAUAUUACGAGUA: the “self-splicing fitness (ln)” value was -2.03 ± 0.41 (30 °C) and -1.94 ± 0.33 (37 °C).

AGUCAGCAAUAUUACGACUC: the “self-splicing fitness (ln)” value is -3.14 ± 0.25 (30 °C) and -2.21 ± 0.24 (37 °C).

CCGGAGCAAUAUUACGACAG: the “self-splicing fitness (ln)” value (30 °C) is -0.593 ± 0.13 and the “self-splicing fitness (ln)” value (37 °C) was -0.569 ± 0.14.

CUUUAGCAAUAUUACGCACA: the “self-splicing fitness (ln)” value (37 °C) was -1.19 ± 0.35.

As to GAAGAGCAAUAUUACGUGUG, the “self-splicing fitness (ln)” value was -3.15 ± 0.22 (30 °C) and -2.67 ± 0.18 (37 °C).

On to UGUCAGCAAUAUUACGCUUC, for which, where the note is “37 °C”, the “self-splicing fitness (ln)” value is -1.76 ± 0.21.

On to UCUGAGCAAUAUUACGAAAC, for which the “self-splicing fitness (ln)” value (30 °C) is -2.45 ± 0.31.

Regarding GAAGAGCAAUAUUACGUUCG, the “self-splicing fitness (ln)” value reads like this: (30 °C) -1.52 ± 0.11; (37 °C) -0.987 ± 0.14.

As for UUUCAGCAAUAUUACGGCCA, the “self-splicing fitness (ln)” value was -1.3 ± 0.19 (30 °C) and -0.656 ± 0.11 (37 °C).

Regarding GGACAGCAAUAUUACGCUCC, the “self-splicing fitness (ln)” value (37 °C) was -1.24 ± 0.46.

Regarding UCCGAGCAAUAUUACGUACU, the “self-splicing fitness (ln)” value was -3.69 ± 0.25 (30 °C) and -2.55 ± 0.34 (37 °C).

As for GUAAAGCAAUAUUACGUCGU, the “self-splicing fitness (ln)” value was -0.978 ± 0.091 (30 °C) and -0.114 ± 0.14 (37 °C).

Turning to CAUUAGCAAUAUUACGUUGA, the “self-splicing fitness (ln)” value is -3.86 ± 0.37 (30 °C) and -2.65 ± 0.34 (37 °C).

Take AUGCAGCAAUAUUACGAAAC: the “self-splicing fitness (ln)” value was -2.82 ± 0.46 (30 °C) and -0.989 ± 0.27 (37 °C).

Consider GGGGAGCAAUAUUACGUUUG, for which the “self-splicing fitness (ln)” value (37 °C) was -2.43 ± 0.37.

Turning to GGUUAGCAAUAUUACGACUC, the “self-splicing fitness (ln)” value is -1.58 ± 0.17 (30 °C) and -0.677 ± 0.21 (37 °C).

On to CUAUAGCAAUAUUACGCCUU, for which the “self-splicing fitness (ln)” value (37 °C) was -2.27 ± 0.39.

For UAGUAGCAAUAUUACGCGGG, the “self-splicing fitness (ln)” value runs as follows: (30 °C) -4.02 ± 0.34; (37 °C) -2.49 ± 0.39.

As for UUCCAGCAAUAUUACGAAGC, the “self-splicing fitness (ln)” value (30 °C) is -2.59 ± 0.32 and the “self-splicing fitness (ln)” value (37 °C) was -1.92 ± 0.26.

Consider AUUAAGCAAUAUUACGGGAC, for which the “self-splicing fitness (ln)” value (30 °C) is -3.35 ± 0.22 and the “self-splicing fitness (ln)” value (37 °C) was -0.882 ± 0.17.

As for GAUCAGCAAUAUUACGAAGC, the “self-splicing fitness (ln)” value runs as follows: (30 °C) -1.74 ± 0.078; (37 °C) -0.845 ± 0.086.

In the case of GGUGAGCAAUAUUACGGAAU, the “self-splicing fitness (ln)” value reads like this: (30 °C) -2.53 ± 0.39; (37 °C) 0.428 ± 0.28.
